# US20130071400A1, “LINGO binding molecules and Pharmaceutical Use Thereof” (NOVARTIS AG, priority 2006, published 2013)
# B1: IgG4 4785: monoclonal human anti-LINGO-1 IgG4 antibody; VL SEQ ID NO: 6, VH SEQ ID NO: 7 (antibody, V domains shown)
# VH: QVQLQQSGPGLVKPSQTLSLTCAISGDSVSDNSAAWSWIRQSPGRGLEWLGLIYLRSKWDNDYAVSVKSRITINPDTSKNQFSLQLNSVTPEDTAVYYCARTGRADEFDVWGQGTLVTVSS
# VL: DIVLTQPPSVSGAPGQRVTISCSGSSSNIGNNYVSWYQQLPGTAPKLLISRNSKRPSGVPDRFSGSKSGTSASLAITGLQSEDEADYYCSTYDTFSIVFGGGTKLTVLG
# modifications: IgG4; 4785 VH; 4785 VL
# B2: IgG4 4784: monoclonal human anti-LINGO-1 IgG4 antibody; VL SEQ ID NO: 4, VH SEQ ID NO: 5 (antibody, V domains shown)
# VH: QVQLKESGPALVKPTQTLTLTCTFSGFSLSSSGVGVGWIRQPPGKALEWLAHIGSDDDKYYSTSLKTRLTISKDTSKNQVVLTMTNMDPVDTATYYCARNQQYGDGYPGYFDYWGQGTLVTVSS
# VL: DIELTQPPSVSVAPGQTARISCSGDNIGNYYVYWYQQKPGQAPVLVIYEDTNRPSGIPERFSGSNSGNTATLTISGTQAEDEADYYCQSYDNLHEQVFGGGTKLTVLG
# modifications: IgG4; 4784 VH; 4784 VL
# Test system: binding of LINGO-1 to NgR
# Sequence (as listed by the source): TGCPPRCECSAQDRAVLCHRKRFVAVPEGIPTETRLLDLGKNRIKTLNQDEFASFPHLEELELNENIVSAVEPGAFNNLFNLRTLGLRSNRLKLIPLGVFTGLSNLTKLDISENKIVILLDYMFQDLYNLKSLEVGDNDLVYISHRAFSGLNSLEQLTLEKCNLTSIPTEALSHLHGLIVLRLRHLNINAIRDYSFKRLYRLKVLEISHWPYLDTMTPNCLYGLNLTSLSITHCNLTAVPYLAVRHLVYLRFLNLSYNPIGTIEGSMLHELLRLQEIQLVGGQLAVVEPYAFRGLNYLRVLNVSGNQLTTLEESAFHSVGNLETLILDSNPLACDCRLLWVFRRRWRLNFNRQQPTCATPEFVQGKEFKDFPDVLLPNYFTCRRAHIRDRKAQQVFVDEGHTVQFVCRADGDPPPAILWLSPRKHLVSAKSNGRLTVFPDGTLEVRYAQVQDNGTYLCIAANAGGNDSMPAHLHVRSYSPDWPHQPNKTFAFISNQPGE
# Experiment: AP-LINGO-1 binding assay (AP-LINGO-1 binding to NgR:SH-SY5Y cells)
# Design: species or system rat
# Conditions: 2 μM Fab, 1 nM AP-LINGO-1; normalized to control Fab 3207; p<0.01 (FIG. 1)
# Description: NgR:SH-SY5Y cells in suspension are incubated with either 1 nM AP or AP-LINGO-1 in the absence or presence of 2 μM of the indicated anti-LINGO-1 Fab or anti-hen lysozyme Fab 3207. Bound AP activity on the cells is measured as absorbance at 405 nm after a 30 min incubation with 1-Step™ PNPP. The specific binding of AP-LINGO-1 is calculated as the difference between the total amount of AP-LINGO-1 binding and the amount of binding with AP alone. The mean percentage inhibition of specific binding (n=3, ±STD) is calculated as the percentile difference between the amount of specific binding of AP-LINGO-1 in the presence of Fab 3207 and the presence of an anti-LINGO-1 Fab.
# The PCR product is cleaved with XhoI and XbaI and inserted into the respective sites of the vector APtag-5-NHIS (SEQ ID NO: 26) to generate APtag-5-NHIS-solrLINGO-1. The predicted protein product is the majority of the rat LINGO-1 ectodomain fused at the N-terminus to residues 23-511 of human placental alkaline phosphatase via a 3 amino acid residue linker. […] AP activity of the concentrated supernatant is measured using 1-Step™ PNPP (Pierce) as change in absorbance at 405 nm over time and transformed to a concentration using the following equation (applies for a 96 well plate format with 200 μl PNPP/well): […]
molecule,measurement,value
B1,inhibition of specific AP-LINGO-1 binding to NgR:SH-SY5Y cells,significantly inhibit
B2,inhibition of specific AP-LINGO-1 binding to NgR:SH-SY5Y cells,significantly inhibit
